The results in this text go back to patent US20160046672A1, “STAPLING eIF4E INTERACTING PEPTIDES” (AGENCY FOR SCIENCE, TECHNOLOGY AND RESEARCH, priority 2013, published 2016).

Positions of bridges follow the written chain, without caps; N, C: chain ends. Non-standard residues stand in square brackets, D forms with d. R5 = C=CCCC[C@@](C)(N)C(=O)O; S5 = C=CCCC[C@](C)(N)C(=O)O; Aib = CC(C)(N)C(=O)O

The target in test [1] is T1, human eukaryotic translation initiation factor 4E (eIF4E), full-length (human, UniProt P06730 2-217).
T1 construct: mature; For SPR it was amine-coupled to a CM5 chip with m7GTP present in a 2:1 ratio. 'mature' is used here for full length; also called full length eIF4E
The experiment in a line: Kd ratio from Table 2 (SPR/FP; which assay is not said; the reference is the linear template eIF4G^D5S).

The target in test [2] is T1, human eukaryotic translation initiation …. In words: competitive fluorescence anisotropy (FP), displacement of FAM tracer from eIF4E, apparent Kd. On the procedure: Apparent Kd values were determined for a variety of molecules via competitive anisotropy anisotropy experiments. Titrations were carried out with the concentrations eIF4E held constant at 200 nM, respectively and the labeled peptide at 50 nM. […] Apparent Kd values were determined by fitting the experimental data to the equations shown below: […]
(Polarisation of emitted light reports the rotation of a fluorescent probe.)

For test [3] the target is unchanged. The experiment in a line: Kd ratio from Table 2 (SPR/FP; which assay is not said).
For test [4] the target is unchanged. The experiment in a line: SPR, Biacore T100, eIF4E immobilised on CM5, peptide as analyte, kinetic 1:1 fit. The method, then: (§1) For stock peptide solutions, the compounds were dissolved in 100% DMSO to a concentration of 10 mM; further dilutions of the peptide stock solutions into DMSO and/or running buffer were performed immediately prior to analysis. Running buffer consisted of 10 mM Hepes pH 7.6, 0.15M NaCl, 1 mM DTT and 0.1% Tween20. Stock/DMSO diluted peptide solutions were diluted into 1.03× running buffer to make a peptide solution with 3% DMSO final concentration. […] Surface Plasmon resonance experiments were performed on a Biacore T100 machine.
eIF4E was immobilized on a CM5 sensor chip. The CM5 chip was conditioned with a 6 s injection of 100 mM HCL, followed by a 6 s injection of 0.1% SDS and completed with a 6 s injection of 50 mM NaOH at a flow rate of 100 μl/min. […] Purified eIF4E was diluted with 10 mM sodium acetate buffer (pH 5.0) to a final concentration of 0.5 μM with m⁷ GTP present in a 2:1 ratio in order to stabilize eIF4E. The amount of eIF4E immobilized on the activated surface was controlled by altering the contact time of the protein solution and was approximately 1000 RU. After the immobilization of the protein, a 7-min injection (at 10 μl min⁻¹) of 1 M ethanolamine (pH 8.5) was used to quench excess active succinimide ester groups.
Six buffer blanks were first injected to equilibrate the instrument fully and then a solvent correction curve was performed followed by a further two blank injections. […] Using a flow rate of 50 μl/min, compounds were injected for 60 s and dissociation was monitored for 180 s. The data collection rate was 10 Hz. Kds were determined using the BiaEvaluation software (Biacore) and calculated kinetically from the dissociation and association phase data for each of the peptides. The kinetic data were fitted to 1:1 binding models. Each individual peptide Kd was determined from three separate titrations.
For orientation: Surface plasmon resonance follows binding to a sensor surface in real time, without labels.

Test [5] shares this target. The experiment in a line: SPR, Biacore T100, eIF4E immobilised on CM5, peptide as analyte, kinetic 1:1 fit; SPR (first value of the SPR/FP cell); weak, about 9 uM. The method, then: as §1
(§2) eIF4E was immobilized on a CM5 sensor chip. The CM5 chip was conditioned with a 6 s injection of 100 mM HCL, followed by a 6 s injection of 0.1% SDS and completed with a 6 s injection of 50 mM NaOH at a flow rate of 100 μl/min. […]
(§3) Six buffer blanks were first injected to equilibrate the instrument fully and then a solvent correction curve was performed followed by a further two blank injections. […] Using a flow rate of 50 μl/min, compounds were injected for 60 s and dissociation was monitored for 180 s. […] Kds were determined using the BiaEvaluation software (Biacore) and calculated kinetically from the dissociation and association phase data for each of the peptides. […] Each individual peptide Kd was determined from three separate titrations.

Test [6] has the same target. The experiment in a line: SPR, Biacore T100, eIF4E immobilised on CM5, peptide as analyte, kinetic 1:1 fit; SPR (first value of the SPR/FP cell); weak, about 12 uM. On the procedure: as §1, §2, §3

T1 sequence (P06730 2-217): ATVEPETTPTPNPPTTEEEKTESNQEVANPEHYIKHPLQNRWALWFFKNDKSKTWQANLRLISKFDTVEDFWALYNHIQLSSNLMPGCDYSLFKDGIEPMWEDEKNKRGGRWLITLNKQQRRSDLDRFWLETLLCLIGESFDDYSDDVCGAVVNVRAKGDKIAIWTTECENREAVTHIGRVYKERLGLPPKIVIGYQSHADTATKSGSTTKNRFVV

B1: sTIP-03 (peptide)
peptide: Ac-KKRYSRE[R5]LL[S5]F-NH2
modifications: staple 8-11
notes: Printed KKRYSRE*LL*F, * = staple position
With B1, the “fold improvement in Kd” value in test [1] stood at 17 fold.

B2: sTIP-01 (peptide)
peptide: Ac-KKRYSR[S5]FLL[S5]F-NH2
modifications: staple 7-11
SMILES: CC(=O)N[C@@H](CCCCN)C(=O)N[C@@H](CCCCN)C(=O)N[C@@H](CCCNC(=N)N)C(=O)N[C@@H](Cc1ccc(O)cc1)C(=O)N[C@@H](CO)C(=O)N[C@@H](CCCNC(=N)N)C(=O)N[C@@]1(C)CCCC=CCCC[C@@](C)(C(=O)N[C@@H](Cc2ccccc2)C(N)=O)NC(=O)[C@H](CC(C)C)NC(=O)[C@H](CC(C)C)NC(=O)[C@H](Cc2ccccc2)NC1=O
notes: Printed KKRYSR*FLL*F, * = staple position
Regarding B2, the Kd in test [2] is 558 nM. Besides, in test [3], the “fold increase in Kd over eIF4G^D5S” value is around 4.5 fold.

B3: TIP-01 (peptide)
peptide: Ac-KKRYSR[Aib]FLL[Aib]F-NH2
SMILES: CC(=O)N[C@@H](CCCCN)C(=O)N[C@@H](CCCCN)C(=O)N[C@@H](CCCNC(=N)N)C(=O)N[C@@H](Cc1ccc(O)cc1)C(=O)N[C@@H](CO)C(=O)N[C@@H](CCCNC(=N)N)C(=O)NC(C)(C)C(=O)N[C@@H](Cc1ccccc1)C(=O)N[C@@H](CC(C)C)C(=O)N[C@@H](CC(C)C)C(=O)NC(C)(C)C(=O)N[C@@H](Cc1ccccc1)C(N)=O
notes: Printed KKRYSRXFLLXF, X = AIB; also called diAIB derivative of sTIP-01
For B3, the values for the Kd in test [4] and in test [2] were 59.7 nM and 52.4 nM, respectively. Moreover, the “fold decrease in Kd over eIF4G^D5S” value in test [3] is around 2 fold.

B4: TIP-02 (peptide)
peptide: Ac-KKRYSRE[Aib]LLG[Aib]-NH2
SMILES: CC(=O)N[C@@H](CCCCN)C(=O)N[C@@H](CCCCN)C(=O)N[C@@H](CCCNC(=N)N)C(=O)N[C@@H](Cc1ccc(O)cc1)C(=O)N[C@@H](CO)C(=O)N[C@@H](CCCNC(=N)N)C(=O)N[C@@H](CCC(=O)O)C(=O)NC(C)(C)C(=O)N[C@@H](CC(C)C)C(=O)N[C@@H](CC(C)C)C(=O)NCC(=O)NC(C)(C)C(N)=O
notes: Printed KKRYSREXLLGX, X = AIB; also called AIB derivative of sTIP-02
Consider B4, for which the Kd in test [5] turned out to be 9190 nM.

B5: TIP-01^Tr (peptide)
peptide: Ac-KKRYSR[Aib]FLL[Aib]-NH2
SMILES: CC(=O)N[C@@H](CCCCN)C(=O)N[C@@H](CCCCN)C(=O)N[C@@H](CCCNC(=N)N)C(=O)N[C@@H](Cc1ccc(O)cc1)C(=O)N[C@@H](CO)C(=O)N[C@@H](CCCNC(=N)N)C(=O)NC(C)(C)C(=O)N[C@@H](Cc1ccccc1)C(=O)N[C@@H](CC(C)C)C(=O)N[C@@H](CC(C)C)C(=O)NC(C)(C)C(N)=O
notes: Printed KKRYSRXFLLX; TIP-01 with the C-terminal F12 removed
With B5, the Kd in test [6] came out at 12100 nM.

B6: eIF4G^D5S (peptide)
peptide: Ac-KKRYSREFLLGF-NH2
notes: also called eIF4G1^D5S; linear template peptide
On to B6, for which the values for the Kd in test [4] and in test [2] were 99.9 nM and 195 nM, respectively.
